Test results: PMC9352346

Target: GST-Smad4-linker-MH2
Assay: GST pull-down, immunoblot band quantification
Conditions: HEK293T cell lysate; n=3; read off a plot

- other: relative amount of Arl15-AL-GFP pulled down: 1.1
Substance: Arl15-WT-GFP A86L
